Broadly, the Tm is the temperature at which the thermal transition is half complete.

Three variants from FireProtDB (doi:10.1016/s0014-5793(99)00158-1) can be followed below.

B1: Barstar, P11540 (parent)
chain: MKKAVINGEQIRSISDLHQTLKKELALPEYYGENLDALWDCLTGWVEYPLVLEWRQFEQSKQLTENGAESVLQVFREAKAEGCDITIILS

The data set covers variants of B1. Conditions: Bacillus amyloliquefaciens; pH 6.2; Thermal; DSC; Na-acetate 10 mM; NaCl 0.05 M; reversible: yes; structure 1BTA; whole UniProt chain shown.

On to C41A, for which the Tm came to 74.1 °C, the “unfolding enthalpy (calorimetric)” value turned out to be 51 kcal/mol and the “unfolding enthalpy (van 't Hoff)” value stood at 73 kcal/mol.
On to C41A C83A, for which the Tm was found to be 73.6 °C, the “unfolding enthalpy (calorimetric)” value is 73 kcal/mol and the “unfolding enthalpy (van 't Hoff)” value is 71 kcal/mol.
For C83A, in that order: 71.9 °C, 49 kcal/mol and 68 kcal/mol.
